Reference: patent US20260242497A1 (VIAL HEALTH TECHNOLOGY, published 2026)

Target: T1, human FcRn (human, UniProt P55899 24-297; P61769 21-119)
T1 construct: also called neonatal Fc receptor
Assay: SPR, Biacore 8K, CM5 chip, antibody immobilised, human FcRn as analyte, pH 6.0, steady-state affinity fit
Experimental: (§1) The 1×PBST running buffer was prepared at both pH 6.0 and pH 7.4. Kinetic measurements were obtained for association and dissociation times of 60 and 90 seconds, respectively, at a flow rate of 30 μL/min. The CM5 chips were regenerated with 1×PBS (pH 7.4). Kinetic parameters for the concentration series at both pHs were fit to a steady state affinity model and averaged using the Biacore Evaluation Software. Each concentration series was fit independently to obtain the average rates and binding affinities.

Row | Fold Increase (FI) relative to RVT-3101 [fold] | Kd [nM] | Binder
1 | 5.3 | 461 | AB_TL1A_02_004_HL3 (antibody, human IgG1, kappa, built from the name and the HLE mutation column) heavy: QVQLVQSGAEVKKPGASVKVSCKASGYDFTYYGISWVRQAPGQGLEWMGWISPYNGNTHYAQKLQGRVTMTTDTSTRTAYMELRSLRSDDTAVYYCARENYYGSGAYRGGMDVWGQGTTVTVSSASTKGPSVFPLAPSSKSTSGGTAALGCLVKDYFPEPVTVSWNSGALTSGVHTFPAVLQSSGLYSLSSVVTVPSSSLGTQTYICNVNHKPSNTKVDKKVEPKSCDKTHTCPPCPAPEAAGAPSVFLFPPKPKDTLMISRTPEVTCVVVDVSHEDPEVKFNWYVDGVEVHNAKTKPREEQYNSTYRVVSVLTVLHRDWLNGKEYKCKVSNKALPAPIEKTISKAKGQPREPQVYTLPPSREEMTKNQVSLTCLVKGFYPSDIAVEWESNGQPENNYKTTPPVLDSDGSFFLYSKLTVDKSRWQQGNVFSCSVLHEALHNHYTQKSLSLSPG light: not shown

Target: T1, human FcRn
Assay: SPR, Biacore 8K, CM5 chip, antibody immobilised, human FcRn as analyte, pH 6.0
Experimental: as §1
SPR analysis was performed using a Bioacore 8K instrument and a CM5 with the antibody immobilized at 10 g/mL concentration, as above.

Row | Binder | Fold Increase (FI) relative to Rituximab [fold] | Kd [nM]
2 | AB_IL15_AI_02_077_HL9 (antibody, human IgG1, kappa, L234A L235A, Anti-IL15 antibody with Q311R, M428L, H433K, N434F) heavy: EVQLVESGGGLVQPGGSLRLSCAASEFTFSNYAMSWVRQAPGKGLEWVATISRGGDYHYYPDSVKGRFTISRDNSKNTLYLQMNSLRAEDTAVYYCARRVSMITGGWAHDYWGQGTLVTVSSASTKGPSVFPLAPSSKSTSGGTAALGCLVKDYFPEPVTVSWNSGALTSGVHTFPAVLQSSGLYSLSSVVTVPSSSLGTQTYICNVNHKPSNTKVDKRVEPKSCDKTHTCPPCPAPEAAGGPSVFLFPPKPKDTLMISRTPEVTCVVVDVSHEDPEVKFNWYVDGVEVHNAKTKPREEQYNSTYRVVSVLTVLHRDWLNGKEYKCKVSNKALPAPIEKTISKAKGQPREPQVYTLPPSREEMTKNQVSLTCLVKGFYPSDIAVEWESNGQPENNYKTTPPVLDSDGSFFLYSKLTVDKSRWQQGNVFSCSVLHEALKFHYTQKSLSLSPGK light: DVVMTQSPLSLPVTLGQPASISCRSSQSIVDITGNTYLEWYQQRPGQSPRLLIYKVFNRFSGVPDRFSGSGSGTDFTLKISRVEAEDVGVYYCFQDSFVPYTFGQGTKLEIKRTVAAPSVFIFPPSDEQLKSGTASVVCLLNNFYPREAKVQWKVDNALQSGNSQESVTEQDSKDSTYSLSSTLTLSKADYEKHKVYACEVTHQGLSSPVTKSFNRGEC | 38.1 | 55.9
3 | AB_IL1b_02_003_HL9 (antibody, human IgG4 S228P, kappa, F234A L235A, Anti-IL1β antibody with Q311R, M428L, H433K, N434F) heavy: EVQLVESGGGLVQPGGSLRLSCAASGFTFSDHYMSWIRQAPGKGLEWVSYISSSGSTIYYADSVKGRFTISRDNAKNSLYLQMNSLRAEDTAVYYCAREYDSSGYYYVGVDFWGQGTLVTVSSASTKGPSVFPLAPCSRSTSESTAALGCLVKDYFPEPVTVSWNSGALTSGVHTFPAVLQSSGLYSLSSVVTVPSSSLGTKTYTCNVDHKPSNTKVDKRVESKYGPPCPPCPAPEAAGGPSVFLFPPKPKDTLMISRTPEVTCVVVDVSQEDPEVQFNWYVDGVEVHNAKTKPREEQFNSTYRVVSVLTVLHRDWLNGKEYKCKVSNKGLPSSIEKTISKAKGQPREPQVYTLPPSQEEMTKNQVSLTCLVKGFYPSDIAVEWESNGQPENNYKTTPPVLDSDGSFFLYSRLTVDKSRWQEGNVFSCSVLHEALKFHYTQKSLSLSLG light: not shown | 50.4 | 42.3
4 | AB_TL1A_02_004_HL1 (antibody, human IgG1, kappa) heavy: QVQLVQSGAEVKKPGASVKVSCKASGYDFTYYGISWVRQAPGQGLEWMGWISPYNGNTHYAQKLQGRVTMTTDTSTRTAYMELRSLRSDDTAVYYCARENYYGSGAYRGGMDVWGQGTTVTVSSASTKGPSVFPLAPSSKSTSGGTAALGCLVKDYFPEPVTVSWNSGALTSGVHTFPAVLQSSGLYSLSSVVTVPSSSLGTQTYICNVNHKPSNTKVDKKVEPKSCDKTHTCPPCPAPEAAGAPSVFLFPPKPKDTLYITREPEVTCVVVDVSHEDPEVKFNWYVDGVEVHNAKTKPREEQYNSTYRVVSVLTVLHQDWLNGKEYKCKVSNKALPAPIEKTISKAKGQPREPQVYTLPPSREEMTKNQVSLTCLVKGFYPSDIAVEWESNGQPENNYKTTPPVLDSDGSFFLYSKLTVDKSRWQQGNVFSCSVMHEALHNHYTQKSLSLSPG light: not shown | 9.8 | 218
5 | AB_IL13_02_001_HL9 (antibody, human IgG1, kappa, L234A L235A) heavy: EVQLQESGPGLVKPSETLSLTCTVSGFSLNAYSVNWIRQPPGKGLEWLGMIWGDGKIVYNSALKSRLTISKDSSKNQVSLKLSSVTAADTAVYYCAGDGYYPYFMDNWGQGTTVTVSSASTKGPSVFPLAPSSKSTSGGTAALGCLVKDYFPEPVTVSWNSGALTSGVHTFPAVLQSSGLYSLSSVVTVPSSSLGTQTYICNVNHKPSNTKVDKKVEPKSCDKTHTCPPCPAPEAAGGPSVFLFPPKPKDTLMISRTPEVTCVVVDVSHEDPEVKFNWYVDGVEVHNAKTKPREEQYNSTYRVVSVLTVLHRDWLNGKEYKCKVSNKALPAPIEKTISKAKGQPREPQVYTLPPSRDELTKNQVSLTCLVKGFYPSDIAVEWESNGQPENNYKTTPPVLDSDGSFFLYSKLTVDKSRWQQGNVFSCSVLHEALKFHYTQKSLSLSPG light: DIQLTQSPSSLSASVGDRVTITCRASKSVDSYGNSFMHWYQQKPGKAPKLLIYLASNLESGVPSRFSGSGSGTDFTLTISSLQPEDFATYYCQQNNEDPRTFGGGTKVEIKRTVAAPSVFIFPPSDEQLKSGTASVVCLLNNFYPREAKVQWKVDNALQSGNSQESVTEQDSKDSTYSLSSTLTLSKADYEKHKVYACEVTHQGLSSPVTKSFNRGEC | 47.5 | 44.8

The next lines start with the values.

Row | Fold Increase (FI) relative to Rituximab [fold] | Kd [nM] | Binder
6 | 20.7 | 103 | AB_IL13_TSLP_BsAb_ISTF_003 (bispecific antibody) chain 1: EVQLVQSGAEVKKPGSSVKVSCKASGYTFSNYLIEWVRQAPGQGLEWIGVIDPGVGDTNYNENFKGRATLTADKSTSTAYIELSSLRSEDTAVYYCAREDNPGTAFDYWGQGTTVTVSSASTKGPSVFPLAPSSKSTSGGTAALGCLVKDYFPEPVTVSWNSGALTSGVHTFPAVLQSSGLYSLSSVVTVPSSSLGTQTYICNVNHKPSNTKVDKRVEPKSCDKTHTCPPCPAPEAAGGPSVFLFPPKPKDTLMISRTPEVTCVVVDVSHEDPEVKFNWYVDGVEVHNAKTKPREEQYNSTYRVVSVLTVLHQDWLNGKEYKCKVSNKALPAPIEKTISKAKGQPREPQVYTLPPCREEMTKNQVSLWCLVKGFYPSDIAVEWESNGQPENNYKTTPPVLDSDGSFFLYSKLTVDKSRWQQGNVFSCSVLHEALHSHYTQKSLSLSPGK chain 2: SIVMTQTPLSLSVTPGQPASISCKASQSVSSDVTWYLQKPGQSPQLLIYYVSEHYTGVPDRFSGSGYGTDFTLKISRVEAEDVGVYYCQQHHRFPLTFGQGTKLEIKRTVAAPSVFIFPPSDEQLKSGTASVVCLLNNFYPREAKVQWKVDNALQSGNSQESVTEQDSKDSTYSLSSTLTLSKADYEKHKVYACEVTHQGLSSPVTKSFNRGEC chain 3: DIQLTQSPSSLSASVGDRVTITCRASKSVDSYGNSFMHWYQQKPGKAPKLLIYLASNLESGVPSRFSGSGSGTDFTLTISSLQPEDFATYYCQQNNEDPRTFGCGTKVEIKGGGGSGGGGSGGGGSGGGGSEVQLQESGPGLVKPSETLSLTCTVSGFSLNAYSVNWIRQPPGKCLEWLGMIWGDGKIVYNSALKSRLTISKDSSKNQVSLKLSSVTAADTAVYYCAGDGYYPYAMRNWGQGTTVTVSSEPKSSDKTHTCPPCPAPEAAGGPSVFLFPPKPKDTLMISRTPEVTCVVVDVSHEDPEVKFNWYVDGVEVHNAKTKPREEQYNSTYRVVSVLTVLHQDWLNGKEYKCKVSNKALPAPIEKTISKAKGQPREPQVCTLPPSREEMTKNQVSLSCAVKGFYPSDIAVEWESNGQPENNYKTTPPVLDSDGSFFLVSKLTVDKSRWQQGNVFSCSVLHEALHSHYTQKSLSLSPGK
7 | 48.5 | 43.9 | AB_IL13_TSLP_BsAb_ISTF_003_HL9 (bispecific antibody, human IgG1, kappa, L234A L235A, Anti-TSLP Fab arm (HC + LC) and anti-IL13 scFv-Fc arm) heavy: EVQLVQSGAEVKKPGSSVKVSCKASGYTFSNYLIEWVRQAPGQGLEWIGVIDPGVGDTNYNENFKGRATLTADKSTSTAYIELSSLRSEDTAVYYCAREDNPGTAFDYWGQGTTVTVSSASTKGPSVFPLAPSSKSTSGGTAALGCLVKDYFPEPVTVSWNSGALTSGVHTFPAVLQSSGLYSLSSVVTVPSSSLGTQTYICNVNHKPSNTKVDKRVEPKSCDKTHTCPPCPAPEAAGGPSVFLFPPKPKDTLMISRTPEVTCVVVDVSHEDPEVKFNWYVDGVEVHNAKTKPREEQYNSTYRVVSVLTVLHRDWLNGKEYKCKVSNKALPAPIEKTISKAKGQPREPQVYTLPPCREEMTKNQVSLWCLVKGFYPSDIAVEWESNGQPENNYKTTPPVLDSDGSFFLYSKLTVDKSRWQQGNVFSCSVLHEALKFHYTQKSLSLSPGK light: SIVMTQTPLSLSVTPGQPASISCKASQSVSSDVTWYLQKPGQSPQLLIYYVSEHYTGVPDRFSGSGYGTDFTLKISRVEAEDVGVYYCQQHHRFPLTFGQGTKLEIKRTVAAPSVFIFPPSDEQLKSGTASVVCLLNNFYPREAKVQWKVDNALQSGNSQESVTEQDSKDSTYSLSSTLTLSKADYEKHKVYACEVTHQGLSSPVTKSFNRGEC scFv: DIQLTQSPSSLSASVGDRVTITCRASKSVDSYGNSFMHWYQQKPGKAPKLLIYLASNLESGVPSRFSGSGSGTDFTLTISSLQPEDFATYYCQQNNEDPRTFGCGTKVEIKGGGGSGGGGSGGGGSGGGGSEVQLQESGPGLVKPSETLSLTCTVSGFSLNAYSVNWIRQPPGKCLEWLGMIWGDGKIVYNSALKSRLTISKDSSKNQVSLKLSSVTAADTAVYYCAGDGYYPYAMRNWGQGTTVTVSSEPKSSDKTHTCPPCPAPEAAGGPSVFLFPPKPKDTLMISRTPEVTCVVVDVSHEDPEVKFNWYVDGVEVHNAKTKPREEQYNSTYRVVSVLTVLHRDWLNGKEYKCKVSNKALPAPIEKTISKAKGQPREPQVCTLPPSREEMTKNQVSLSCAVKGFYPSDIAVEWESNGQPENNYKTTPPVLDSDGSFFLVSKLTVDKSRWQQGNVFSCSVLHEALKFHYTQKSLSLSPGK
8 | 45.9 | 46.4 | AB_IL13_02_004_HL9 (antibody, human IgG1, kappa, L234A L235A) heavy: EVQLQESGPGLVKPSETLSLTCTVSGFSLNAYSVNWIRQPPGKGLEWLGMIWGDGKIVYNSALKSRLTISKDSSKNQVSLKLSSVTAADTAVYYCAGDGYYPYAMDGWGQGTTVTVSSASTKGPSVFPLAPSSKSTSGGTAALGCLVKDYFPEPVTVSWNSGALTSGVHTFPAVLQSSGLYSLSSVVTVPSSSLGTQTYICNVNHKPSNTKVDKKVEPKSCDKTHTCPPCPAPEAAGGPSVFLFPPKPKDTLMISRTPEVTCVVVDVSHEDPEVKFNWYVDGVEVHNAKTKPREEQYNSTYRVVSVLTVLHRDWLNGKEYKCKVSNKALPAPIEKTISKAKGQPREPQVYTLPPSRDELTKNQVSLTCLVKGFYPSDIAVEWESNGQPENNYKTTPPVLDSDGSFFLYSKLTVDKSRWQQGNVFSCSVLHEALKFHYTQKSLSLSPG light: DIQLTQSPSSLSASVGDRVTITCRASKSVDSYGNSFMHWYQQKPGKAPKLLIYLASNLESGVPSRFSGSGSGTDFTLTISSLQPEDFATYYCQQNNEDPRTFGGGTKVEIKRTVAAPSVFIFPPSDEQLKSGTASVVCLLNNFYPREAKVQWKVDNALQSGNSQESVTEQDSKDSTYSLSSTLTLSKADYEKHKVYACEVTHQGLSSPVTKSFNRGEC
